B1: TPR t1 (parent)
chain: GACCAAUCUGCCCUCAGAGCUCGAGAACAUCUUCGGAUGCAGAGGAGGCAGGCUUCGGUGGCGCGAUAGCGCCAACGUCCUCAACCUCCAAUGCAUCCCACCACAUGAUGAUGCCUGAAGAGCCUUGGUUUUUUG

Variants of: B1
Experiment: polymerase ribozyme fitness, log enrichment relative to wild type (log ratio); higher = more active; in vitro selection for triplet polymerase activity
In short: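 Mutant libraries of each subunit of a heterodimeric triplet polymerase ribozyme were built by PCR and transcribed. Each library went through one round of in vitro selection in triplicate: annealing with biotinylated primer, partner subunit and triplets, frozen incubation at −7 °C, gel excision of extended constructs, streptavidin-bead capture and RT-PCR. Input and output libraries were Illumina-sequenced; only genotypes with ≥10 input reads and ≥1 read per output were kept. Fitness is log2(genotype enrichment/wild-type enrichment), using inverse-variance-weighted replicate averages.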

Row | Variant | polymerase ribozyme fitness (log ratio)
1 | GACCAAUCGGACCUCAGAGCUCGAGAACAUCUUCGGAUGCAGAGGAGGCAGGCUUCGGUGGCGCGAUAGCGCCAACGCCCUCAACCUCCAAUGCAUCCCACCACAUGAUGAUGCCUGAAGAGCCUUGGUUUUUUG [U9G C11A U78C] | -0.41
2 | GACGAAUCUGCCCUCAGAGCUCGAGAACAUCUUCGGAUGCAGAGGUGGCAGGUUUCGGUGGCGCGAUAGAGCCAACGUCCUCAACCUCCAAUGCAUCCCACCACAUGAUGAUGCCUGAAGAGCCUUGGUUUUUUG [C4G A46U C53U C70A] | -2.97
3 | GACCAAUCUGCCCUCAGAGCUCGAGAACAUCUUCGGAUGCAGACGAGGCAGGCUUCGGUGGCGCGAUAGCGCCAACGUCCUCAACCUCCAAUGCAUCCCACCACAUGAUGAUGCCCGAAGAGCAUUGGUUUUUUG [G44C U116C C124A] | -0.551
4 | GACCAAUCUGCCCUCAGAGCUCGAGAACAUCUUCGGAUGCAGAGGAGGCAGGCUUCGGUGGCGCGAUAGGGCCAACGUCUUCAACCUCCAAUGCAUCCCACCACAUGAUGAUGCCUGAAGAGCCUUGGUUUUUUG [C70G C80U] | -2.51
5 | GACCAAUCUGCCCUCAGAGCUCGAGAACAUCUUCGGAUGCAUAGGAGGCAGGCUUCGGUAGCGCGAUAGCGCCAACGUCCUCAACCACCAAUGCAUCCCACCACAUGAUGAUACCUGAAGAGCCUUGGUUUUUUG [G42U G60A U87A G113A] | -3.78
6 | GACCAAUCUGCCCUCAGAGCGCGAGAACAUCUUCGGAUGCAGAGGAGGCAGGCUUCGGUGGCGCGAUAGCGCCAACGUCCUCAACCUCCAAUGCAUGCCACCACAUGAUGAGGCCUGAAGAGCCUUGGUUUUUUG [U21G C97G U112G] | -5.7
7 | GACCAAUCUGCCCACAGAGCUCGAGAACAUCUUCGGUUGCAGAGGAGGCAGACUUCGGCGGCGCGAUAGCACCAACGUCCUCAACCUCCAAUGCAUCCCACCACAUGAUGAUGCCUGAAGAGCCUUGGUUUUUUG [U14A A37U G52A U59C G71A] | -3.95
8 | GACCAAUCUGCGCUCAGAUCUCGAGAACAUCUUCGGAUGCAGAGGAGGCAGGCUUCGGUGGCGCGAUAGCGACAACGUCCUCAACCUCCAAUGCAUCCCACCACAUGAUGAUGCCUGAAGAGCCUUGGUUUUUUG [C12G G19U C72A] | -5.03
9 | GACCAAUCUGCCCUCAGAGCUCGAGAACAUCUUCGGAUGCAGAGGAGGCAGGCUUCGGUGGCGCGAUAGCGCCAACGUCCUCAACCUCCAAUGCAUCCCAGCACAUGAUGAAGCCUGAAGAGCCUUGGUUUUUUG [C101G U112A] | 0.152
10 | GACCAAUCUGCCCUCAGAGCUCGAGAACAUCUUCGGACGCAGAGGAGGCAGGCUUCGGUGGCACGAUAGCGCCAACCUCCUCAACCUCCAAUGCAUCCCACCACAUGAUGAUGCCUGAAGAGCCUUGGUUGUUUG [U38C G63A G77C U131G] | -2.97
11 | GACCUAUGUGCCCUCAGAACUCGAGAACAUCUUCGGAUGCAGUGGAGGCAGGCAUCGGUGGCGCGAUAGGGCCAACGUCCUCAACCUCCAAUGCAUCCCACCACAUGAUGAUGCCUGAAGAGCCUUGGUUUUUUG [A5U C8G G19A A43U U54A C70G] | -4.96
12 | GACCAAUGUGCCCUCAGAGCUCGAGAGCAUCUUCGGAUGCAGAGGAGGCAGGCUUCGGUGGCGCGAUAGCGCCAACGUCCUCAACCUCCAAUUCAUCCCACCAAAUGAUGUUGCCUGAAGAGCCCUGGUUUUUUG [C8G A27G G93U C104A A111U U125C] | -4.25
13 | GACCAAUAUGCCCUCAGAGCUCGAGAACAUCUUCGGAUGCAGAGGAGGCAGGCUUCGGUGGCGCGAUAGCGCCUACGUCCUCAACCUCCAAUGCAUCCCACCACAUGAUGAUGCUUGUAGAGCUUUGGUUUUUUG [C8A A74U C115U A118U C124U] | -0.848
14 | GACCAAUCUGCCCUCAGAGCUCGUGAACAUCUUCGGAUGCAGAGGAGGCAGGCUUCGGUGGCGCGAUAGCGCCAACGUUCUCAACCUCCAAUGCAUCCCACCACAUGAUGAUGUCUGAAGAGCCUUGAUUAUUUG [A24U C79U C114U G128A U131A] | -5.77
15 | GACCAAUCUGCCCUCAGAGCUCGAGAACAUCUUCGGAUGCAGAGGAGGCAGGCUUCGGUGGCGCGUUAGCGCCAACGUCCUCAACCUCCAAUGCAUUCCACCACAUGAUGAUGCCUGAAUAGUCUUGGUUUUUUG [A66U C97U G120U C123U] | -0.305
16 | GACCAAUCUGCCCUCAGAGCUCGAGAACAUCUUCGGAUGCAGAGGAUGCAGGCUUCGGUGGCGCGAUAGCGCCAACGGCCUCAACCUCCAAUGCAACCCACCACAUGAUGAUGCCUGAAGAGCCUUGGUUUUUUG [G47U U78G U96A] | -1.79
17 | GACCAAUCUGCCCUCAGAGCUCGAGAACAUCUUCGGAUGCCGAGGAGGCAGGCUUCGGUGGCGCGAUAGCGCCAACGUCCUCAACCUCCAAAGCAUCCCACCACAUGAUGAUGCCUGAAGAGCCUUGGUUUUUUG [A41C U92A] | -2.21
18 | GACCAAUCUGCCCUCAGAGCUCGAGAACAUCUUCGGAUGCAGAGGAGGCAGGCUUCGGUGGCCCGAUAGCGCCAACGUCCUCAACCGCCAAUGCAUCCCACCACAUGAUGAUGCCUGAAGAGCCUUGGUUUUUUG [G63C U87G] | -0.832
19 | GACCAAUCUGCCCUCAGAGCUCGAGAACAUCUUCGGAUGCAGAGGAGGCAGGCUUCGGUGUCGCGAUAGCGGCAACGUCCUCAACCUCCAAUGCAUCCCACCACAUGAUGAUGCCUGAAGAGCCUUGGUUUUUUG [G61U C72G] | -0.168
20 | GACCAAUCUGCCCUCAGAGCUCGAGAACAUCUUCGGAUGAAGAGGAGGCUGGCUUCGGUGGCGCGAUAGCGCCAACGUCCUCAACCUCCAAUGCAUCCCACCACAUGAUGAUGCCUGAAGAGCCUUGGUUUUUUG [C40A A50U] | -1.94
21 | GACCAAUCUGCCCUCAGAGUUCGAGAACGUCUUCGGAUGCAGAGGAGGCAGGCUUCGGUGUCGCGAUAGCGCCAACGUCCUCAACCUCCAAUGCAUCCCACCACAUGAUGAUGCACUAAGAGCCUUGGUUUUUUG [C20U A29G G61U C115A U116C G117U] | -1.83

Source: the RNAGym collection of RNA variant scans (doi:10.1073/pnas.2313332121)
